Laboratory results taken from patent publication US20240180855A1, “BIOACTIVE PRODUCTS” (priority 2021, published 2024).

Tested on: wheat
Assay: Wheat growth after seed treatment with complexes of inhibitors and nucleases (Example 5)
Type: in vivo
Settings: seeds treated 1 hour at 37° C.; cultivation 23° C.
Protocol: Plant: wheat Treatment: The seeds were treated with various products for 1 hour, at 37° C. […] Cultivation temperature 23° C.

B1: Proteinase K: protease (protein, UniProt P06873 106-384, looked up)
Proteinase K: AAQTNAPWGLARISSTSPGTSTYYYDESAGQGSCVYVIDTGIEASHPEFEGRAQMVKTYYYSSRDGNGHGTHCAGTVGSRTYGVAKKTQLFGVKVLDDNGSGQYSTIIAGMDFVASDKNNRNCPKGVVASLSLGGGYSSSVNSAAARLQSSGVMVAVAAGNNNADARNYSPASEPSVCTVGASDRYDRRSSFSNYGSVLDIFGPGTSILSTWIGGSTRSISGTSMATPHVAGLAAYLMTLGKTTAASACRYIADTANKGDLSNIPFGTVNLLAYNNYQA
  Chlorophyll total: 35.2 mg/g
  Emergence (%): 42%
  Root lenght: 4.3
  Shoot length: 0.0
